Source: the supplement of paper PMC9170038

Experiments:
MS2 coat protein [1] = experiment: apparent KD of MS2 coat protein, switch ON state; designed switch direction (-1 OFF switch, 1 ON switch): -1; higher = weaker reporter binding; details: FMN input: 0 or 200 uM; Eterna round: R93 (includes R88 designs)
Outline: (§1)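 Designed RNA switches were made by on-chip transcription from Illumina sequencing clusters and then titrated with SNAP-549-labelled MS2 coat protein. Twofold steps ran from 0.7 or 1.5 nM to 3 µM, each lasting 0.8–1.5 h early and 10–20 min late, in 100 mM Tris-HCl pH 7.5, 80 mM KCl, 4 mM MgCl2, without or with constant ligand. Apparent KD is the per-design median of normalised cluster binding-curve fits.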

MS2 coat protein [2] = experiment: apparent KD of MS2 coat protein, switch OFF state (with FMN for OFF switches, without FMN for ON switches); designed switch direction (-1 OFF switch, 1 ON switch): -1; higher = weaker reporter binding; details: FMN input: 0 or 200 uM; Eterna round: R93 (includes R88 designs)
Outline: as §1

MS2 coat protein [3] = experiment: apparent KD of MS2 coat protein; designed switch direction (-1 OFF switch, 1 ON switch): 1; higher = weaker reporter binding
Outline: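 Designed RNA switches with common flanks were transcribed on Illumina chips by stalled E. coli RNA polymerase and titrated with SNAP-549-labelled MS2 coat protein, from 0.7 or 1.5 nM doubling to 3 µM, in Tris-HCl pH 7.5 buffer with KCl, MgCl2, BSA, DTT, tRNA and Tween-20. Steps lasted 0.8–1.5 h (lowest) to 10–20 min (highest). Titrations ran without input, with 200 uM small-molecule ligand, or with an oligonucleotide input. Normalised cluster fluorescence was curve-fitted, and apparent KD is the per-design median over clusters.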

[4] = input ligand: microRNA oligo, concentration not stated
[5] = Eterna round: R95, input ligand: FMN 200 uM
[6] = Eterna round: R95, input ligand: microRNA oligo, concentration not stated
[7] = Eterna round: R95, input ligand: none

Sequence | apparent KD of MS2 coat protein (MS2 coat protein [1]) [nM] | apparent KD of MS2 coat protein (MS2 coat protein [2]) [nM] | further results
AAGAUGUUAGGAUAUGCUGCUCGUCACAAAAGUGAUGAGUAGCAGAAGGGACAUGAGGAUCACCCAUGUAAAGA [JL eternac mod 6] | 45.5 | 34.8 | –
UGCAGGUGAGGAUAUGCGGGCGAUUAAACAUAUAAAUGCAAGCAGAAGGCACAUGAGGAUCACCCAUGUAGUCC [Ex4Try2_Neo] | 30.8 | 29.6 | –
GAAAACCUAGGAUAUACAUGAGGAUCACCCAUGUCAGUAGACUGGGUAAGGUCUCUCAGUAGAAGGAGGACCCA [Ratilein] | 315 | 318 | –
GGAUGGGAAGGAUAUACAUGAGGAUCACCCAUGUGAGAGAAAAAAGUGAGAAAGAAAAGUAGAAGGUCUUGUCG [salish99-ex3-85] | 82.5 | 99.1 | –
AAAAUGUCAGGAUAUGCGAAGGCGUCUGAUAGACGAGGCUAGCAGAAGGGACAUGAGGAUCACCCAUGUGGAAA [Power strip 63% 2] | 125 | 128 | –
AAAAAGGCAGGAUAUGCAUACUCACGGAAAAAAAGGUUGGGACAUGAGGAUCACCCAUGUAGAAGGGCCAAAAA [Dora Explored 14 - Jieux - Exclusion 2] | 29.6 | 23.8 | –
AAAAAGCGAGGAUAUACGAAGCUAAGACAAAUAAGCAAGGGACAUGAGGAUCACCCAUGUAGAAGGCGCAAAAA [Exclusion 2-01... 60% 2] | 29.4 | 58.6 | –
AUAAAGUGAGGAUAUCGAAGACUGUCGAAAAGACAGUCGAACGAGAAGGCACAUGAGGAUCACCCAUGUGAGGG [Mat - Exaclusion 4 - Eli mod - D68] | 79.7 | 122 | –
AACAUGUCAGGAUAUGCAACAGGAGACUGACACGCGAGUGAGCAGAAGGGACAUGAGGAUCACCCAUGUUCAAA [Meechl Ex4 3] | 21.1 | 17.1 | –
CUCUUGUCAGGAUAUAGAAGAAAAGAAAAGAAAGAAAAGAACUAGAAGGGACAUGAGGAUCACCCAUGUAAGAA [EteRNA is fun!] | 87.5 | 62.9 | –
GUCGUGUGAGGAUAUGGAAAGAAGAAGAAAAGGUAGAAAAACUAGAAGGCACAUGAGGAUCACCCAUGUAAGAA [JR_Exc004_Sub1709] | 24.1 | 22.3 | –
CUCUUGUCAGGAUAUGUAAGAAAAGAAGAGAAAGAAAAGAAACAGAAGGGACAUGAGGAUCACCCAUGUAAGAA [EteRNA is fun!] | 66.4 | 77 | –
AAGAAACAUGAGGAUCACCCAUGUGAGGAUAUGUAAAAGAAAAGAAAAGAAAGAAGAAACAGAAGGCACAAAGG [Neferkare VII] | 43.1 | 48 | –
CUCUUGUAAGGAUAUUAAUGAAAUGAAGUGAAAGAAAAGAAUAAGAAGGUACAUGAGGAUCACCCAUGUUAGAA [EteRNA is fun!] | 28.9 | 27 | –
AAAAAACAUGAGGAUCACCCAUGUAAGGAUAUGCUAAAAAACGCAAAAAAAGCGAAUAGCAGAAGGUACAAAAA [66%, Wbt, 29] | 19.4 | 35.9 | –
AACUGACAUGAGGAUCACCCAUGUCAGGAUAUGCUUCAUAAAAAAAAAAAAAAAUGAUGCAGAAGGGAUAUGGG [Design 33 :P Sub-opt 9] | 18 | 34.3 | –
GAAAGUGGAGGAUAUACAUGAGGAUCACCCAUGUGUAAAAAUAAAAACACAAAAGAAAGUAGAAGGCCACAAAG [Mat - Exclusion 3 - Mayanna mod - D116] | 22.9 | 49.2 | –
AAAAAUGGAGGAUAUACAUGAGGAUCACCCAUGUGUAACUAUACUAAGCACAAACCAAGUAGAAGGCCAAAAAA [Gilly Gone Silly 10 - Jieux - Exclusion 3] | 45.4 | 95.3 | –
AAGGAGUGAGGAUAUACAUGAGGAUCACCCAUGUUGAUGGAAACGUCAGAGAAAGAAGGUAGAAGGCACAAGAA [JR_Exclusion3_Sub6] | 51.2 | 54.1 | –

Sequence | apparent KD of MS2 coat protein (MS2 coat protein [1]) [nM] | apparent KD of MS2 coat protein (MS2 coat protein [2]) [nM] | further results
AAGAACUGAGGAUAUACAAAAUAAAAGAAAAGAAAGAAAGAACAUGAGGAUCACCCAUGUAGAAGGCGGAAGAA [Wahibre Ibiau] | 29.4 | 29.1 | –
AGUUGGCGAGGAUAUACAUGAGGAUCACCCAUGUGAGAGAAAAAAGUGAGAAAGAAAAGUAGAAGGCGCGGACA [Ruby 1] | 47.3 | 70.4 | –
GAAAAGCAAGGAUAUACAUGAGGAUCACCCAUGUGGAAUGGCGUGACCUAAAGAAAAGGUAGAAGGUGCACGUG [Soangebi] | 166 | 341 | –
AUAGUACAUGAGGAUCACCCAUGUCAGGAUAUUCGAAACGAAAAAAAAAAAAAGUGAAGGAGAAGGGACUAUAA [EX1 Malc#10] | 17.5 | 21.1 | –
AAAGGACAUGAGGAUCACCCAUGUGAGGAUAUGACGUAAAGAAAGAAAGAAGAAAUCGUCAGAAGGCACACCUA [Mat - Exclusion 1 - Eli mod - D69] | 35.4 | 36.5 | –
AUCAUCCUAGGAUAUACAUGGAUAUACAUUCAUGUGGACCUACAUGAGGAUCACCCAUGUAGAAGGAGGAUGAA [Mat - Same state - Mayanna Mod - D139] | 36.7 | 75.1 | –
AAGAAGUCAGGAUAUGCAAAAGAAAAGAAAAGAAAAGAAAAGCAGAAGGGACAUGAGGAUCACCCAUGUAAGAA [Metsuire Cambyses] | 32.7 | 40.1 | –
GGUCGGACUCACAUGAGGAUCACCCAUGUUGCGGAAACGCGGCAGGAUAUCUGUCCGAAAAGGUCAGAGAAGGGCUAACCGACC [Fiskers NG3ss - 56] (Eterna round: R96, puzzle: Same State NG 3) | – | – | apparent KD of MS2 coat protein (MS2 coat protein [3]; input ligand: FMN 200 uM): 52.2 nM; apparent KD of MS2 coat protein (MS2 coat protein [3]; [4]): 254 nM; apparent KD of MS2 coat protein (MS2 coat protein [3]; input ligand: none): 343 nM
CGUCCGGCCUGAGCUGGACGGUAGCAUGUACAUGAGGAUCACCCAUGUUCAUGUGCAGGCUUUUUGCUCGUCUUGUG [salish99_mir208a_modof_jandersonlee_003] (puzzle: Sensor for hsa-mir-208a) | – | – | apparent KD of MS2 coat protein (MS2 coat protein [3]; [5]): 42.3 nM; apparent KD of MS2 coat protein (MS2 coat protein [3]; [6]): 10.6 nM; apparent KD of MS2 coat protein (MS2 coat protein [3]; [7]): 44.9 nM
UGGUACAUGGGAGGAUAUCAUGUAGAAACAUGAGGAUCACCCAUGUAGAUGGCACGAUUCGUGAAUGAGAAGGCCCAUGUACCU [JL SSNG1 3.60] (Eterna round: R96, puzzle: Same State NG 2) | – | – | apparent KD of MS2 coat protein (MS2 coat protein [3]; input ligand: FMN 200 uM): 36.8 nM; apparent KD of MS2 coat protein (MS2 coat protein [3]; [4]): 38.2 nM; apparent KD of MS2 coat protein (MS2 coat protein [3]; input ligand: none): 52.8 nM
GGUCCAUCAUGAGGAUAUGGCACCUUAUUGGUGCCAGAAGGCAUGUAAAUUAUAAUAACAUGAGGAUCACCCAUGUAUUGGACC [Eli NG1ss - 95] (Eterna round: R96, puzzle: Same State NG 1) | – | – | apparent KD of MS2 coat protein (MS2 coat protein [3]; input ligand: FMN 200 uM): 44.6 nM; apparent KD of MS2 coat protein (MS2 coat protein [3]; [4]): 218 nM; apparent KD of MS2 coat protein (MS2 coat protein [3]; input ligand: none): 492 nM
AUAAGUUCGAUGCUCGUCUCUCCGUACAAACAUGAGGAUCACCCAUGUGAUUGAGCAGUAGCCCAAUCAGUAUGGCC [Tileus] (puzzle: Sensor for hsa-mir-208a) | – | – | apparent KD of MS2 coat protein (MS2 coat protein [3]; [5]): 45.1 nM; apparent KD of MS2 coat protein (MS2 coat protein [3]; [6]): 23.9 nM; apparent KD of MS2 coat protein (MS2 coat protein [3]; [7]): 47.9 nM
GCUCGACUGAUGGCCUACAUGAGGAUCACCCAUGUGAUUGGGCAGGAUAUCUAGAUGCAGGAUGUAGAGAAGGGCCGGUCGAGC [SameState NG3 #46] (Eterna round: R96, puzzle: Same State NG 3) | – | – | apparent KD of MS2 coat protein (MS2 coat protein [3]; input ligand: FMN 200 uM): 472 nM; apparent KD of MS2 coat protein (MS2 coat protein [3]; [4]): 501 nM; apparent KD of MS2 coat protein (MS2 coat protein [3]; input ligand: none): 475 nM
AAGAAACAUGAGGAUCACCCAUGUCGAAAUAACACAGGAUAUCGCACGACUACGGUGCGGCGAGAAGGGUGAGGAA [Estere] (puzzle: Same State 1) | – | – | apparent KD of MS2 coat protein (MS2 coat protein [3]; [5]): 54.7 nM; apparent KD of MS2 coat protein (MS2 coat protein [3]; [6]): 78.4 nM; apparent KD of MS2 coat protein (MS2 coat protein [3]; [7]): 94.7 nM
UUAUAACAUGAGGAUCACCCAUGUCAACAAAGUCGAGGAUAUGGGCAAGAAGUGAGAGAACCAGAAGGCGAAUAUU [Mat - Same State 1 - Mod of UCT - D30] (puzzle: Same State 1) | – | – | apparent KD of MS2 coat protein (MS2 coat protein [3]; [5]): 72 nM; apparent KD of MS2 coat protein (MS2 coat protein [3]; [6]): 88.7 nM; apparent KD of MS2 coat protein (MS2 coat protein [3]; [7]): 97.4 nM
UGCAUACAUGAGGAUCACCCAUGUCUACGAUGUCGAGGAUAUGGAUUGCCGUGAGGCGUGCCAGAAGGCGAAGUGG [Same State 1 - Mod of Vinnie Teenbexe v.2] (puzzle: Same State 1) | – | – | apparent KD of MS2 coat protein (MS2 coat protein [3]; [5]): 26.2 nM; apparent KD of MS2 coat protein (MS2 coat protein [3]; [6]): 33.7 nM; apparent KD of MS2 coat protein (MS2 coat protein [3]; [7]): 30.1 nM
AGUCCAGCCUGAGCUGGACAAAAGCAUGUACAUGAGGAUCACCCAUGUCAUGUACAAGUUUUUUGCUCGUCUUAAUA [Zipper 49 - 12] (puzzle: Sensor for hsa-mir-208a) | – | – | apparent KD of MS2 coat protein (MS2 coat protein [3]; [5]): 46.9 nM; apparent KD of MS2 coat protein (MS2 coat protein [3]; [6]): 11.1 nM; apparent KD of MS2 coat protein (MS2 coat protein [3]; [7]): 53.1 nM
GGUAGGUUACUACCAAACAUGAGGAUCACCCAUGUAAGUGGGAAGGAUAUGGUACCUUUUAGGUACCAGAAGGUCCAUAUAGUU [JL Fiskers NG3ss - 2 mod 9] (Eterna round: R96, puzzle: Same State NG 3) | – | – | apparent KD of MS2 coat protein (MS2 coat protein [3]; input ligand: FMN 200 uM): 405 nM; apparent KD of MS2 coat protein (MS2 coat protein [3]; [4]): 141 nM; apparent KD of MS2 coat protein (MS2 coat protein [3]; input ligand: none): 501 nM
